Measurements as given in the supplement of paper PMC10567573.

B1: SMG5 (parent)
chain: TRKLSPGKKRCKDIKRLLVNFMYL
B2: HDAC6 (parent)
chain: ACAQLATGAACRLVEAVLSGEVLN
B3: SASS6 (parent)
chain: QKELQDVGQSLRIKEQEVCKLQEQ

Variants of: B1
Experiment: protein stability index of a GFP-peptide fusion (GPS, HEK-293T) (PSI 1-6); higher = more stable
Settings: c terminus: a fixed tail appended
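Also: lentivirally expressed fusions sorted by FACS into six bins by GFP to DsRed ratio, PSI derived from sequencing read proportions per bin multiplied by bin number.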

Protein stability index of substitutions, site by site:
I14: V 2.2 | W 2.49
N20: Y 2.56 | H 3.2 | W 1.09 | Q 3.52 | K 2.12 | S 3.78 | I 3.42 | F 4.01 | E 3.09 | P 3.07 | V 2.79 | D 3.56
L18: M 3.27 | F 2.21 | G 2.35 | K 1.54 | H 1.6 | C 1.52 | V 2.52 | A 1.41 | E 2.16 | D 1.76 | Y 2.5 | S 1.88 | Q 1.95 | N 1.55 | R 1.68 | T 1.65 | P 2.48
F21: C 1.21 | R 1.88 | A 1.76 | P 1.6 | G 1.63 | E 1.75 | Y 1.76 | S 2.88 | N 1.97 | K 2.12 | I 3.19 | H 1.49 | W 1.91 | D 2.37 | T 1.99 | Q 1.71
L24: F 2.53 | A 2.34 | M 3 | C 1.39 | Y 2.08 | E 1.96 | D 1.2 | I 4.07 | S 1.98 | G 2.92 | Q 2.04 | K 2.46 | R 2.39 | P 2.63 | H 1.55 | W 1.9 | T 2.02
K15: A 3.83 | L 2.08 | M 2.66 | E 3.46 | V 4.58 | W 2.09 | T 3.37 | P 2.23 | N 3.35 | G 1.85 | D 1.3 | Q 1.64
Y23: H 2.35 | P 1.81 | T 2.18 | I 3.31 | R 2.05 | S 3.81 | V 4.04 | M 2.94 | K 2.93 | F 1.64 | D 2.01 | W 2.16 | A 2.85
V19: L 3.43 | G 2.1 | P 2.62 | Y 4.05 | T 1.84 | D 2.34 | Q 2.26 | C 2.31 | I 1.66 | M 2.59 | H 2.72 | N 2.21 | S 2.12 | E 1.68
L17: G 3.06 | D 2.24 | A 1.77 | Y 2.65 | S 2.56 | K 2.64 | F 3.34 | M 2.12 | E 1.55 | Q 1.5 | T 1.9 | P 1.5 | V 1 | R 1.84 | H 1.3
M22: Q 1.34 | P 2.39 | D 2.34 | R 2.4 | G 2.04 | S 1.39 | V 2.33 | F 2.29 | T 2.11 | N 1.95 | Y 2.96 | H 1.65 | E 2.45 | K 1.86 | C 1.75
R16: K 2.01 | W 3.81 | T 2.9 | Q 1.27 | G 1.71 | E 2.42 | D 1.6 | A 2.73 | L 1.66 | M 4.38 | S 1.36 | I 3.39 | P 2.24 | N 2.58 | C 2.27

Variants of: B2
Experiment: as above
Settings: c terminus: a fixed tail appended

Protein stability index: each site, then its substitutions
V14: A 2.05 | H 2.56 | Q 2.74 | N 3.78 | S 2.15 | T 1.75 | G 2.17 | D 2.53 | K 1.97 | C 3.54 | M 3.28
Q4: A 2.68 | I 1.55 | P 1.04 | K 2.69 | E 2.92 | Y 4.38
A3: N 1.68 | W 2.17 | S 4.04 | D 2.88 | F 3.94
L5: I 1.51 | G 2.42 | D 2.61 | P 2.2 | E 2.48 | Q 2.67 | T 1.37 | N 1.81 | M 2.68 | H 1.42 | V 1.16
S19: P 2.98 | A 4.12
A1: S 3.19 | T 4.34 | P 1.53 | G 1 | E 3.75 | C 1.16 | K 1.92
A9: N 1.09 | Y 1.68 | R 3 | E 3.49 | D 2.61 | G 1.69 | W 2.99 | I 3.52 | K 2.23 | P 2.4
C2: P 1.82 | L 3.12 | Q 2.97 | K 1.99 | T 3.63 | S 1.08 | N 1.21 | E 2 | D 2.98
E21: Y 3.01 | N 3.96 | I 3.07 | W 2.67 | D 2.6 | C 2.87 | K 1.09
E15: H 4.01 | N 2.52 | P 1.05
A10: K 2.38 | R 1.7 | Q 1.71 | E 1.82 | I 2.01 | D 2.22 | G 1.43 | Y 1.49 | P 2 | C 2.16
G20: L 3.07 | D 2.25 | R 2.86 | P 2.07 | S 2.89 | E 1.43 | F 3.97 | I 2.15
V22: D 2.37 | P 2.42 | M 3.31 | F 2.71 | S 1.36 | A 3.65 | G 2.44 | L 2.09 | Y 3.8 | E 1.84 | H 4.01 | K 1.01
G8: M 1.28 | C 2.74 | T 3.69 | S 1.94 | D 2.67
V17: P 2.5 | D 3.56 | H 2.75 | S 1.93 | T 2.04 | Q 1.85
A6: E 2.35 | K 1.19 | Q 2.74 | D 2.11 | H 1 | I 3.57 | C 2.49 | G 2.25 | N 1.48 | T 1.39
L18: M 3.05 | S 2.04 | T 2.02 | R 2.29 | P 3.73 | A 1.69 | Q 2.2 | C 1.45 | D 3.68 | Y 3.82 | K 2.1 | H 2.47
L23: E 2.83 | K 1.7 | W 2.42 | D 2.49 | A 2.22 | M 4.41 | V 1.26 | H 3.51 | P 1.96 | Y 3.97 | Q 1.05 | N 1.54
A16: R 2.18 | D 2.78 | P 2.28 | Y 3.51 | L 2.77
L13: P 2.53 | S 1.68 | H 3.21 | N 2.06 | M 2.93 | K 3.91 | R 2.5 | T 1.93 | D 3.58
N24: F 1.85 | D 1.87 | K 2.61
R12: D 1.48 | M 3.3 | Y 3.46 | A 2.3 | N 2.52 | T 2.92 | Q 1.97 | G 1.26 | S 1.65 | P 2.66
C11: P 2.27 | R 1.78 | A 2.9 | K 2.29 | E 1.04
T7: S 2.78 | M 3.57 | D 1.79 | N 1.54

Variants of: B3
Experiment: as above
Settings: c terminus: a fixed tail appended

Protein stability index, by site and new letter:
Q1: E 5.94 | H 5.51 | F 4.25 | C 4.99
